Measurements taken from the supplement of paper PMC9112550, “Optimization of the antimicrobial peptide Bac7 by deep mutational scanning” (BMC Biology, 2022).

What follows are sequences tested on Escherichia coli TOP10 (assay: shrunken log2 fold change of peptide-encoding DNA abundance (4.5 h post-induction vs induction); higher = less antimicrobial activity (less host growth inhibition)). Conditions: time post-induction: 4.5 h; library: site-saturation at positions 5, 18, 19, 20.
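Note: peptides expressed intracellularly from a pBAD plasmid library in pooled LB shake-flask culture, induced with 0.3% L-arabinose, DNA abundance read by NGS, three biological replicates, DESeq2 with apeglm shrinkage.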

Which “shrunken log2 fold change” value does the source give for RRIRVRPPRLPRPRPRPVMQPRP here?
Its value is -0.0429.

How did the “shrunken log2 fold change” value turn out when RRIRSRPPRLPRPRPRPSMDPRP was run?
The value was -0.514.

RRIRMRPPRLPRPRPRPCQDPRP was tested. Which “shrunken log2 fold change” value did it give?
The value was 0.227.

How did the “shrunken log2 fold change” value turn out when RRIRYRPPRLPRPRPRPPLPPRP was run?
The value was 0.184.

For RRIRGRPPRLPRPRPRPCQYPRP, which “shrunken log2 fold change” value is on record?
Its value is 0.0685.

RRIRKRPPRLPRPRPRPFFDPRP was tested. Which “shrunken log2 fold change” value did it give?
Its value is 0.112.

How did the “shrunken log2 fold change” value turn out when RRIRPRPPRLPRPRPRPRVEPRP was run?
The value was 0.625.

RRIRGRPPRLPRPRPRPLTEPRP was tested. Which “shrunken log2 fold change” value did it give?
Its value is 1.22.

With RRIRIRPPRLPRPRPRPLAIPRP as the sequence, how does the “shrunken log2 fold change” value read?
The value was -1.11.

Which “shrunken log2 fold change” value does the source give for RRIRTRPPRLPRPRPRPSVPPRP here?
The value was -0.0459.

For RRIRQRPPRLPRPRPRPAQLPRP, which “shrunken log2 fold change” value is on record?
The value was 0.0104.

Which “shrunken log2 fold change” value does the source give for RRIRTRPPRLPRPRPRPGQMPRP here?
The value was 0.0303.

Which “shrunken log2 fold change” value does the source give for RRIRMRPPRLPRPRPRPQCYPRP here?
Its value is -0.0225.

With RRIRQRPPRLPRPRPRPAYVPRP as the sequence, how does the “shrunken log2 fold change” value read?
Its value is -0.0582.

For RRIRKRPPRLPRPRPRPYGYPRP, which “shrunken log2 fold change” value is on record?
The value was -0.0282.

For RRIRQRPPRLPRPRPRPEGQPRP, which “shrunken log2 fold change” value is on record?
The value was -0.0666.

RRIRHRPPRLPRPRPRPQGMPRP was tested. Which “shrunken log2 fold change” value did it give?
The value was -0.201.

Which “shrunken log2 fold change” value does the source give for RRIRERPPRLPRPRPRPHYAPRP here?
Its value is -0.383.

For RRIRIRPPRLPRPRPRPLGTPRP, which “shrunken log2 fold change” value is on record?
Its value is -0.356.

For RRIRKRPPRLPRPRPRPGKVPRP, which “shrunken log2 fold change” value is on record?
Its value is 0.248.

Which “shrunken log2 fold change” value does the source give for RRIRTRPPRLPRPRPRPPLTPRP here?
The value was 0.13.

For RRIRNRPPRLPRPRPRPWVVPRP, which “shrunken log2 fold change” value is on record?
The value was 0.0152.

RRIRIRPPRLPRPRPRPWPKPRP was tested. Which “shrunken log2 fold change” value did it give?
Its value is -0.122.

How did the “shrunken log2 fold change” value turn out when RRIRIRPPRLPRPRPRPCRDPRP was run?
The value was -0.132.

With RRIRARPPRLPRPRPRPWAGPRP as the sequence, how does the “shrunken log2 fold change” value read?
Its value is 0.233.

How did the “shrunken log2 fold change” value turn out when RRIRSRPPRLPRPRPRPWKLPRP was run?
The value was -0.221.

For RRIRIRPPRLPRPRPRPMAFPRP, which “shrunken log2 fold change” value is on record?
The value was -0.0587.

How did the “shrunken log2 fold change” value turn out when RRIRIRPPRLPRPRPRPDNSPRP was run?
The value was -1.35.

With RRIRPRPPRLPRPRPRPLKMPRP as the sequence, how does the “shrunken log2 fold change” value read?
The value was -0.124.

With RRIRSRPPRLPRPRPRPPLNPRP as the sequence, how does the “shrunken log2 fold change” value read?
The value was 0.0261.

With RRIRPRPPRLPRPRPRPTHCPRP as the sequence, how does the “shrunken log2 fold change” value read?
Its value is 0.1.

For RRIRDRPPRLPRPRPRPNFGPRP, which “shrunken log2 fold change” value is on record?
Its value is 0.0243.

RRIRYRPPRLPRPRPRPFEFPRP was tested. Which “shrunken log2 fold change” value did it give?
The value was -0.153.

RRIRIRPPRLPRPRPRPSFGPRP was tested. Which “shrunken log2 fold change” value did it give?
The value was -0.389.

For RRIRSRPPRLPRPRPRPYFNPRP, which “shrunken log2 fold change” value is on record?
The value was -0.626.

RRIRHRPPRLPRPRPRPSDMPRP was tested. Which “shrunken log2 fold change” value did it give?
The value was 2.66.

RRIRVRPPRLPRPRPRPMMIPRP was tested. Which “shrunken log2 fold change” value did it give?
The value was -0.131.

RRIRYRPPRLPRPRPRPYMPPRP was tested. Which “shrunken log2 fold change” value did it give?
Its value is -0.00804.

How did the “shrunken log2 fold change” value turn out when RRIRSRPPRLPRPRPRPWVTPRP was run?
Its value is -0.89.

For RRIRWRPPRLPRPRPRPDGQPRP, which “shrunken log2 fold change” value is on record?
The value was -0.000921.

How did the “shrunken log2 fold change” value turn out when RRIRIRPPRLPRPRPRPHFYPRP was run?
Its value is -0.407.

RRIRFRPPRLPRPRPRPYSFPRP was tested. Which “shrunken log2 fold change” value did it give?
The value was -0.967.

RRIRIRPPRLPRPRPRPARRPRP was tested. Which “shrunken log2 fold change” value did it give?
Its value is 0.72.

With RRIRFRPPRLPRPRPRPQQAPRP as the sequence, how does the “shrunken log2 fold change” value read?
Its value is 0.366.

RRIRHRPPRLPRPRPRPWPLPRP was tested. Which “shrunken log2 fold change” value did it give?
The value was -0.306.

For RRIRTRPPRLPRPRPRPRCYPRP, which “shrunken log2 fold change” value is on record?
Its value is -0.429.

For RRIRLRPPRLPRPRPRPHWTPRP, which “shrunken log2 fold change” value is on record?
The value was -0.015.

Which “shrunken log2 fold change” value does the source give for RRIRSRPPRLPRPRPRPYEFPRP here?
The value was -0.438.

RRIRERPPRLPRPRPRPCCVPRP was tested. Which “shrunken log2 fold change” value did it give?
Its value is -0.743.

Which “shrunken log2 fold change” value does the source give for RRIRIRPPRLPRPRPRPPIGPRP here?
Its value is -0.0282.

How did the “shrunken log2 fold change” value turn out when RRIRMRPPRLPRPRPRPMFYPRP was run?
The value was -0.127.

How did the “shrunken log2 fold change” value turn out when RRIRPRPPRLPRPRPRPIDAPRP was run?
The value was 0.159.

Which “shrunken log2 fold change” value does the source give for RRIRHRPPRLPRPRPRPNPTPRP here?
The value was -0.193.

With RRIRMRPPRLPRPRPRPRLVPRP as the sequence, how does the “shrunken log2 fold change” value read?
The value was 0.76.

RRIRRRPPRLPRPRPRPSNDPRP was tested. Which “shrunken log2 fold change” value did it give?
The value was -0.162.

For RRIRQRPPRLPRPRPRPNRQPRP, which “shrunken log2 fold change” value is on record?
The value was 0.0872.

How did the “shrunken log2 fold change” value turn out when RRIRTRPPRLPRPRPRPVWVPRP was run?
Its value is -0.0284.

How did the “shrunken log2 fold change” value turn out when RRIRDRPPRLPRPRPRPPEAPRP was run?
The value was 0.479.

Which “shrunken log2 fold change” value does the source give for RRIRVRPPRLPRPRPRPPYTPRP here?
Its value is -0.268.

For RRIRQRPPRLPRPRPRPEMQPRP, which “shrunken log2 fold change” value is on record?
The value was 0.0355.

How did the “shrunken log2 fold change” value turn out when RRIRERPPRLPRPRPRPYMKPRP was run?
Its value is -0.438.

How did the “shrunken log2 fold change” value turn out when RRIRERPPRLPRPRPRPAKIPRP was run?
Its value is 0.039.

Which “shrunken log2 fold change” value does the source give for RRIRGRPPRLPRPRPRPFGEPRP here?
The value was 0.793.

For RRIRCRPPRLPRPRPRPKIRPRP, which “shrunken log2 fold change” value is on record?
Its value is 0.0994.

How did the “shrunken log2 fold change” value turn out when RRIRTRPPRLPRPRPRPSTYPRP was run?
Its value is -0.4.

How did the “shrunken log2 fold change” value turn out when RRIRDRPPRLPRPRPRPHAFPRP was run?
Its value is -0.0699.

RRIRFRPPRLPRPRPRPLHMPRP was tested. Which “shrunken log2 fold change” value did it give?
The value was -1.06.

With RRIRQRPPRLPRPRPRPLFPPRP as the sequence, how does the “shrunken log2 fold change” value read?
Its value is 0.0501.

With RRIRYRPPRLPRPRPRPGSKPRP as the sequence, how does the “shrunken log2 fold change” value read?
Its value is -0.0678.

RRIRTRPPRLPRPRPRPSQRPRP was tested. Which “shrunken log2 fold change” value did it give?
The value was 0.0168.

Which “shrunken log2 fold change” value does the source give for RRIRFRPPRLPRPRPRPGNSPRP here?
Its value is 0.00114.

With RRIRYRPPRLPRPRPRPQWMPRP as the sequence, how does the “shrunken log2 fold change” value read?
Its value is -0.19.

How did the “shrunken log2 fold change” value turn out when RRIRSRPPRLPRPRPRPYLCPRP was run?
The value was -0.627.

Which “shrunken log2 fold change” value does the source give for RRIRERPPRLPRPRPRPWSIPRP here?
Its value is 0.0521.

With RRIRCRPPRLPRPRPRPQQIPRP as the sequence, how does the “shrunken log2 fold change” value read?
The value was -0.168.

How did the “shrunken log2 fold change” value turn out when RRIRFRPPRLPRPRPRPKSLPRP was run?
The value was 0.0638.

Which “shrunken log2 fold change” value does the source give for RRIRSRPPRLPRPRPRPMIAPRP here?
The value was 0.0435.

How did the “shrunken log2 fold change” value turn out when RRIRFRPPRLPRPRPRPYDDPRP was run?
The value was -0.0579.

Which “shrunken log2 fold change” value does the source give for RRIRRRPPRLPRPRPRPKAIPRP here?
The value was 0.111.

With RRIRRRPPRLPRPRPRPFPAPRP as the sequence, how does the “shrunken log2 fold change” value read?
The value was 0.731.

With RRIRSRPPRLPRPRPRPSDYPRP as the sequence, how does the “shrunken log2 fold change” value read?
The value was -0.87.

How did the “shrunken log2 fold change” value turn out when RRIRDRPPRLPRPRPRPVITPRP was run?
The value was 0.0916.

With RRIRQRPPRLPRPRPRPCHEPRP as the sequence, how does the “shrunken log2 fold change” value read?
Its value is -0.0663.

RRIRDRPPRLPRPRPRPWRPPRP was tested. Which “shrunken log2 fold change” value did it give?
Its value is 0.0967.

How did the “shrunken log2 fold change” value turn out when RRIRVRPPRLPRPRPRPYWIPRP was run?
The value was -0.163.

How did the “shrunken log2 fold change” value turn out when RRIRNRPPRLPRPRPRPHQGPRP was run?
Its value is -0.0861.

With RRIRIRPPRLPRPRPRPGGPPRP as the sequence, how does the “shrunken log2 fold change” value read?
The value was 0.0365.

How did the “shrunken log2 fold change” value turn out when RRIRPRPPRLPRPRPRPEPRPRP was run?
Its value is 1.05.

RRIRNRPPRLPRPRPRPYRDPRP was tested. Which “shrunken log2 fold change” value did it give?
The value was -0.0123.

Which “shrunken log2 fold change” value does the source give for RRIRYRPPRLPRPRPRPAHLPRP here?
The value was -0.0584.

How did the “shrunken log2 fold change” value turn out when RRIRHRPPRLPRPRPRPPCGPRP was run?
Its value is 0.176.

Which “shrunken log2 fold change” value does the source give for RRIRCRPPRLPRPRPRPVCTPRP here?
Its value is 0.0452.

How did the “shrunken log2 fold change” value turn out when RRIRHRPPRLPRPRPRPMPFPRP was run?
Its value is 0.0462.

For RRIRCRPPRLPRPRPRPRTTPRP, which “shrunken log2 fold change” value is on record?
Its value is 0.472.

For RRIRIRPPRLPRPRPRPNCCPRP, which “shrunken log2 fold change” value is on record?
Its value is -0.0793.

How did the “shrunken log2 fold change” value turn out when RRIRWRPPRLPRPRPRPRMIPRP was run?
Its value is 0.693.

How did the “shrunken log2 fold change” value turn out when RRIRKRPPRLPRPRPRPFPTPRP was run?
The value was 2.75.

Which “shrunken log2 fold change” value does the source give for RRIRMRPPRLPRPRPRPLKTPRP here?
Its value is 0.642.

How did the “shrunken log2 fold change” value turn out when RRIRYRPPRLPRPRPRPNMHPRP was run?
The value was -0.934.

For RRIRRRPPRLPRPRPRPFNGPRP, which “shrunken log2 fold change” value is on record?
Its value is 0.0131.

RRIRFRPPRLPRPRPRPHKTPRP was tested. Which “shrunken log2 fold change” value did it give?
Its value is -0.0597.

With RRIRHRPPRLPRPRPRPHLNPRP as the sequence, how does the “shrunken log2 fold change” value read?
The value was -0.00458.

Which “shrunken log2 fold change” value does the source give for RRIRDRPPRLPRPRPRPGHPPRP here?
Its value is 0.813.

With RRIRPRPPRLPRPRPRPFFHPRP as the sequence, how does the “shrunken log2 fold change” value read?
The value was -0.229.

For RRIRIRPPRLPRPRPRPAMMPRP, which “shrunken log2 fold change” value is on record?
The value was -0.105.

RRIRSRPPRLPRPRPRPWWWPRP was tested. Which “shrunken log2 fold change” value did it give?
Its value is 0.0716.

How did the “shrunken log2 fold change” value turn out when RRIRYRPPRLPRPRPRPYIQPRP was run?
Its value is -0.294.

How did the “shrunken log2 fold change” value turn out when RRIRDRPPRLPRPRPRPYTMPRP was run?
Its value is -0.0014.

With RRIRLRPPRLPRPRPRPWCAPRP as the sequence, how does the “shrunken log2 fold change” value read?
Its value is -0.0114.
